Measured values taken from paper doi:10.1101/2023.07.11.548556, “Skeletal progenitor LRP1 deficiency causes severe and persistent skeletal defects with WNT/planar cell polarity dysregulation” (bioRxiv, 2023).

Target: T1, Low-density lipoprotein receptor-related protein 1 (LRP1), purified human full-length (human, UniProt Q07954 20-4544)
T1 construct: Low-density lipoprotein receptor-related protein 1 (LRP1), human, purified full-length protein coated on the plate; also called full-length LRP1; Full-length sLRP1; source: purified
Assay: ELISA; solid-phase binding assay; human full-length LRP1 (10 nM in 50 mM Tris-HCl pH 7.5, 150 mM NaCl, 10 mM CaCl2) coated on microtiter plates; 0-200 nM Wnt in 5% BSA blocking solution, 30 min at RT; bound Wnt detected with a specific anti-Wnt antibody; signal of uncoated wells subtracted; apparent constants (KD,app) extrapolated from a one-phase decay nonlinear fit
Details: both partners purified

T1 sequence (Q07954 20-4544): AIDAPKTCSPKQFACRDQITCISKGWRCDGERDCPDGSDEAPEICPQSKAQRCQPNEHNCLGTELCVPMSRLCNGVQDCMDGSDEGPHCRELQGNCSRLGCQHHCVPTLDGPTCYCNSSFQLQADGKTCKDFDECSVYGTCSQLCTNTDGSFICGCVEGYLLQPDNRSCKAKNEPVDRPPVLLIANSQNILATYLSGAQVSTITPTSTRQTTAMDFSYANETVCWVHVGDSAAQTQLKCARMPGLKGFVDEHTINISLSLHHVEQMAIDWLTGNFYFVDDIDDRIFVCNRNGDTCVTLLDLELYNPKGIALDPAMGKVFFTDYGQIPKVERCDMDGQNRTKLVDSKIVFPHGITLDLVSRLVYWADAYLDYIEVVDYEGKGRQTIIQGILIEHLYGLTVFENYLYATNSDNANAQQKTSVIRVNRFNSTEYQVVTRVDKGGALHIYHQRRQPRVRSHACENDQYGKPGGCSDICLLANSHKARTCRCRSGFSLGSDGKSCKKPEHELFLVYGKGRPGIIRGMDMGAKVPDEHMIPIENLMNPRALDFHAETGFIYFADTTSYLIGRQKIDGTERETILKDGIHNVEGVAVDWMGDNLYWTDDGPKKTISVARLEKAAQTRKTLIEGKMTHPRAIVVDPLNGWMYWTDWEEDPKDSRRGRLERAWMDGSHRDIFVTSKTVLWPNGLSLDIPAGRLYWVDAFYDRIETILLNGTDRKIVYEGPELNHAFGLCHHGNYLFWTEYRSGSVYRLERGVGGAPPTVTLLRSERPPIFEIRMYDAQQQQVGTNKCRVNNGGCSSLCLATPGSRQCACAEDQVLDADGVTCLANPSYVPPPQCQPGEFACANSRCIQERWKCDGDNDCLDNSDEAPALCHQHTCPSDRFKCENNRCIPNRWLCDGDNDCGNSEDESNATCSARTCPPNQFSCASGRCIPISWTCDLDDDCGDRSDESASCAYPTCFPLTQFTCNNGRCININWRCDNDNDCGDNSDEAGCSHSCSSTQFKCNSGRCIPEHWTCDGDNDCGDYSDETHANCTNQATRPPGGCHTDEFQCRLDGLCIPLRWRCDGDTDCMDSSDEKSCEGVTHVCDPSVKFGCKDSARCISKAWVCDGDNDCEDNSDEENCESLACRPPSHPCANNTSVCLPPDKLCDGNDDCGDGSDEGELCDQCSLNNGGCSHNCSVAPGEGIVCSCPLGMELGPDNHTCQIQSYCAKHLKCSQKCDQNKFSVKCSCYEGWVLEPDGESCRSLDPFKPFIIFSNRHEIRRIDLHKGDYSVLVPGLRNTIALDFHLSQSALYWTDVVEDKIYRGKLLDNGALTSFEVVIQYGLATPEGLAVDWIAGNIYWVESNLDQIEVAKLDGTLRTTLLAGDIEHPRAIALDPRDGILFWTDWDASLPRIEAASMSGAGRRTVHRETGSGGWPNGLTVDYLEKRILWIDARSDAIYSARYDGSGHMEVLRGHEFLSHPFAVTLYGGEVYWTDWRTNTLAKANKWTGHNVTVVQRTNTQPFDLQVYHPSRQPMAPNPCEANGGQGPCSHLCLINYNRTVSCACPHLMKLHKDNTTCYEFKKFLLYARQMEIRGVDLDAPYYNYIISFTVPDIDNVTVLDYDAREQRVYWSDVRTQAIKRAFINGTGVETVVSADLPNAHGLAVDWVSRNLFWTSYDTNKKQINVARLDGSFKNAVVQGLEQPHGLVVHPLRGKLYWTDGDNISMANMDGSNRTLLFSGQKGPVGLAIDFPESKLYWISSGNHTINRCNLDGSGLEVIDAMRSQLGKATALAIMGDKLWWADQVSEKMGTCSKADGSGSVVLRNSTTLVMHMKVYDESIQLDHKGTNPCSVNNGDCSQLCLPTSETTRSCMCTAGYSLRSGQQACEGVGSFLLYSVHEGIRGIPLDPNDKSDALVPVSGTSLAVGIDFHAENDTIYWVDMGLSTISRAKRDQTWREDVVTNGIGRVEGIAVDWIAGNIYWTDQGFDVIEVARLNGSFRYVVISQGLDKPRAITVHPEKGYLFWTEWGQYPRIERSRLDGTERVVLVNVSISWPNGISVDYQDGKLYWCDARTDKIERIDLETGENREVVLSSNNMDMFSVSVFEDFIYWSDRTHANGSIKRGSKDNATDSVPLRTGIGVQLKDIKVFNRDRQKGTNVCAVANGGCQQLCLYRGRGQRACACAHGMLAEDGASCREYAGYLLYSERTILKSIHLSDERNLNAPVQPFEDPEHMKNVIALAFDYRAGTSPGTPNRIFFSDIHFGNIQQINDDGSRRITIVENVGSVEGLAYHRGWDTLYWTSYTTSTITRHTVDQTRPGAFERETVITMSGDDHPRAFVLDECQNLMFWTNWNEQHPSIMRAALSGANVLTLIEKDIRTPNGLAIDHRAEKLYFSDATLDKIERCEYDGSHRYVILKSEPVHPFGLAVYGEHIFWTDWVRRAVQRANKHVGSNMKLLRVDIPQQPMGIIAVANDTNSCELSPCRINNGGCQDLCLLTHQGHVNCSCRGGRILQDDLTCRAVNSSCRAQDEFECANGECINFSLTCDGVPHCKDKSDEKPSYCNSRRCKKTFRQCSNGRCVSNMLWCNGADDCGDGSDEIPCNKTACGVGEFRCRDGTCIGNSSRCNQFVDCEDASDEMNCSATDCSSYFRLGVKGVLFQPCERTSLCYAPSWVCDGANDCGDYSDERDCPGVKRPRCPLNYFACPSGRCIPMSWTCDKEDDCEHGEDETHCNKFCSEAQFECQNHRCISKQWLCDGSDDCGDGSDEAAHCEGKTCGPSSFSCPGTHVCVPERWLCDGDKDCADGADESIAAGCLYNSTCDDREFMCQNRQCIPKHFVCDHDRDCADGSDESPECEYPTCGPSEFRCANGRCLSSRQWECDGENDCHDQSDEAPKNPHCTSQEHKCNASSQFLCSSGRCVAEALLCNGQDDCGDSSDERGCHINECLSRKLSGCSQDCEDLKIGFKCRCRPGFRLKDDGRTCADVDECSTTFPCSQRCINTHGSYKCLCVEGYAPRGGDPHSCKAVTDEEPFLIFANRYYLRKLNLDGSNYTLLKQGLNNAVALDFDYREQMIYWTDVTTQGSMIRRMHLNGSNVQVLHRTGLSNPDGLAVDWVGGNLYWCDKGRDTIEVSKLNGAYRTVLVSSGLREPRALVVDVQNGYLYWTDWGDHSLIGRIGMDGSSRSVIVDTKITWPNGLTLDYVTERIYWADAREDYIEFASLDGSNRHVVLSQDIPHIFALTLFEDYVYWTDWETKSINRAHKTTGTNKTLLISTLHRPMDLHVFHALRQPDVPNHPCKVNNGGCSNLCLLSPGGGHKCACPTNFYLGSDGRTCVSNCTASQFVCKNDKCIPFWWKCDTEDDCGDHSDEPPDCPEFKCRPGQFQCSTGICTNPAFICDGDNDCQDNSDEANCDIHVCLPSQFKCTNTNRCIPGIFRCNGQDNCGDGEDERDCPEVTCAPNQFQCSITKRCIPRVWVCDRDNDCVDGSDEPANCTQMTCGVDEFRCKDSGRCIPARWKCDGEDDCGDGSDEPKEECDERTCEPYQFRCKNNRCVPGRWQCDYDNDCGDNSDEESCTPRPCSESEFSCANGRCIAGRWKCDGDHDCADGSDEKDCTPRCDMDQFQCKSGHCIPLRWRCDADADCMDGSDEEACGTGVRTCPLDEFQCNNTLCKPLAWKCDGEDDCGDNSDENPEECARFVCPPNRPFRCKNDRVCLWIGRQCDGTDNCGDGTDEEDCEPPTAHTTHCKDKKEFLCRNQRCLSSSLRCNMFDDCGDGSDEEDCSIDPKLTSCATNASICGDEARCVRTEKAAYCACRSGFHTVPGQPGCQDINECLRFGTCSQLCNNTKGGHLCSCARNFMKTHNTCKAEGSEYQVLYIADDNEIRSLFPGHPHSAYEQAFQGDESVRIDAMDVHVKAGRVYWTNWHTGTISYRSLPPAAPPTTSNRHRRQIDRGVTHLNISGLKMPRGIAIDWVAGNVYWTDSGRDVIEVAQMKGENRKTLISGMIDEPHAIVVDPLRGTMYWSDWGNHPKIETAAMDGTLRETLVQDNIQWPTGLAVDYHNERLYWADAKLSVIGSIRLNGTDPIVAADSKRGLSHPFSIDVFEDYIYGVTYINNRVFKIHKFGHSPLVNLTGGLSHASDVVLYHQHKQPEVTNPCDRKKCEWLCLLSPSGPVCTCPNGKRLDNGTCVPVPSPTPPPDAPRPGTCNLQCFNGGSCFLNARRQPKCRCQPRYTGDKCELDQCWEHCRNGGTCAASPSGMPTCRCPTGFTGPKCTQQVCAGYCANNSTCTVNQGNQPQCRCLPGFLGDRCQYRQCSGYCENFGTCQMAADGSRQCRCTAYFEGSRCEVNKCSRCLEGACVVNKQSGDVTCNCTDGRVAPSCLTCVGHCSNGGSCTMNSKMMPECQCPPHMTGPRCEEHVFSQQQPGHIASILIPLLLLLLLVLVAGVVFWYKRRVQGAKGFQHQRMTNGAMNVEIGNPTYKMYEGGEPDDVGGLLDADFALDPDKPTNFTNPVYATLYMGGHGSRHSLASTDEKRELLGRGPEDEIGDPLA

Kd [µM]	Binder
0.031	Wnt5a (ligand, UniProt P41221 62-380, looked up, Wnt5a, purified protein; source: purified) IIGAQPLCSQLAGLSQGQKKLCHLYQDHMQYIGEGAKTGIKECQYQFRHRRWNCSTVDNTSVFGRVMQIGSRETAFTYAVSAAGVVNAMSRACREGELSTCGCSRAARPKDLPRDWLWGGCGDNIDYGYRFAKEFVDARERERIHAKGSYESARILMNLHNNEAGRRTVYNLADVACKCHGVSGSCSLKTCWLQLADFRKVGDALKEKYDSAAAMRLNSRGKLVQVNSRFNSPTTQDLVYIDPSPDYCVRNESTGSLGTQGRLCNKTSEGMDGCELMCCGRGYDQFKTVQTERCHCKFHWCCYVKCKKCTEIVDQFVCK
> 0.2	Wnt3a (ligand, UniProt P56704 19-352, looked up, Wnt3a, purified protein; source: purified) SYPIWWSLAVGPQYSSLGSQPILCASIPGLVPKQLRFCRNYVEIMPSVAEGIKIGIQECQHQFRGRRWNCTTVHDSLAIFGPVLDKATRESAFVHAIASAGVAFAVTRSCAEGTAAICGCSSRHQGSPGKGWKWGGCSEDIEFGGMVSREFADARENRPDARSAMNRHNNEAGRQAIASHMHLKCKCHGLSGSCEVKTCWWSQPDFRAIGDFLKDKYDSASEMVVEKHRESRGWVETLRPRYTYFKVPTERDLVYYEASPNFCEPNPETGSFGTRDRTCNVSSHGIDGCDLLCCGRGHNARAERRREKCRCVFHWCCYVSCQECTRVYDVHTCK
0.042	Wnt11 (ligand, UniProt O96014 25-354, looked up, Wnt11, purified protein; source: purified) IKWLALSKTPSALALNQTQHCKQLEGLVSAQVQLCRSNLELMHTVVHAAREVMKACRRAFADMRWNCSSIELAPNYLLDLERGTRESAFVYALSAAAISHAIARACTSGDLPGCSCGPVPGEPPGPGNRWGGCADNLSYGLLMGAKFSDAPMKVKKTGSQANKLMRLHNSEVGRQALRASLEMKCKCHGVSGSCSIRTCWKGLQELQDVAADLKTRYLSATKVVHRPMGTRKHLVPKDLDIRPVKDSELVYLQSSPDFCMKNEKVGSHGTQDRQCNKTSNGSDSCDLMCCGRGYNPYTDRVVERCHCKYHWCCYVTCRRCERTVERYVCK
